B1: HDV Ribozyme (parent)
chain: GGCCGGCAUGGUCCCAGCCUCCUCGCUGGCGCCGGCUGGGCAACAUUCCGAGGGGACCGUCCCCUCGGUAAUGGCGAAUGGGACCCA

Variants of: B1
Assay: self-cleavage, relative activity (ratio to wild type); higher = more cleavage; co-transcriptional

Variant	self-cleavage
A71U G80C	0.185
A71U G80U	0.21
A78G C85U	0.748
A77G G82C	0.389
G80C A83C	0.128
U79C G80U	0.267
U79C G80A	0.129
G73U A83G	0.219
A78U C84G	0.0396
A78U C84A	0.185
U72C A78G	0.237
G74U U79G	0.199
G82C C86U	0.285
G81C C84A	0.26
G74A A87G	0.339
C75A U79G	0.208
C75A U79A	0.256
C75A A77G	0.0875
G80A C84A	0.58
G80A C84G	0.161
G73A C85G	0.703
A71G A78U	0.229
G74U A77C	0.123

Variant	self-cleavage
G82U A83U	0.289
G82U A83G	0.137
A78C G80U	0.174
A78C G80A	0.174
A78C G80C	0.0514
G80U C85A	0.288
G76C C84G	0.618
A77C G82A	0.358
A77C A87U	0.466
U72C C84A	0.166
U72C C84G	0.369
G76U A83U	0.481
G76U A83G	0.787
G76U A83C	0.755
G76C A77G	1
C75G G82U	0.215
A78G G82A	0.365
C86U A87U	0.835
A77U G82C	0.208
G74U G80U	0.0956
C85G A87C	0.849
A71G G80A	0.288
C84U C86A	0.767

Variant	self-cleavage
G73U C85U	0.458
A77C C86A	0.407
U72C C85U	0.511
U72G U79C	0.297
U72G U79A	0.534
G76A A87C	1.03
G76U A77G	0.978
A78U G82U	0.197
A78U G82C	0.0302
G80A C85A	0.408
A77C C84U	0.326
G80C G81A	0.089
C86A	0.926
C86U	0.935
C86G	0.983
A77G	0.887
A77U	0.623
A77C	0.377
U79A C86U	1.02
U79A C86G	0.81
U79C C86A	0.513
G74C C84U	0.196
G80U C86G	0.243

Variant	self-cleavage
G73C G74A	0.422
G73C G74U	0.166
A83C C84G	0.231
A83C C84A	0.78
A83C A87C	0.499
U72A C75G	0.119
U72A C75U	0.199
G80U C84A	0.652
C84G C85A	0.928
C84G C85U	0.719
C75U C84U	0.0767
C75U G80C	0.142
C75U G80U	0.178
U72G C84U	0.386
A78G G81A	0.115
C85A	0.932
C85U	0.978
C85G	0.948
G74U G82A	0.217
A77G G80C	0.0437
G74A C85U	0.462
G74A C85G	0.601
A71G G82A	0.538

Variant	self-cleavage
A71G G82U	0.312
A71U A78C	0.188
A71U A78G	0.59
G76C A87U	1.1
G76C A87G	1.08
U72A A77G	0.57
A77U A78G	0.443
C75G U79C	0.113
U72C A83C	0.332
U72C A83U	0.128
G80U G81A	0.277
G80U G81U	0.191
U72C A77C	0.246
U72G G82U	0
A77U A83G	0.261
A77U A83C	0.231
U72C G80A	0.138
C75A A87C	0.202
G73U C75U	0.111
G73U C75A	0.107
A77U C85G	0.299
A77U C85U	0.96
G76C G81C	0.0875

Variant	self-cleavage
U79G A83C	0.204
C75U G82C	0.108
A71G C84A	1.02
G73C A87G	0.454
G73C A87C	0.592
G73C C85G	0.527
G73C C85U	0.415
G81U C84A	0.378
C85U C86A	0.923
C85U C86G	0.946
A71U G82A	0.365
G81A A87U	0.565
C85G C86A	0.763
G80U A87G	0.272
G80U A87C	0.192
G74A A78U	0.173
U72C C86G	0.277
G74U A87U	0.506
C86G A87G	0.905
C86G A87U	0.965
A78G G80C	0.329
C75U U79C	0.172
U79A C85G	0.997

Variant	self-cleavage
G73C A78G	0.237
U72C G76U	1.01
U72C G76A	0.962
U72C G76C	0.779
G81A C85A	0.35
G80U G82C	0.332
U79A G81C	0.0504
U79A G81U	0.295
G81C G82C	0.106
G73C G81A	0.0817
G74A U79A	0.0852
G76A U79G	0.672
G82U	0.41
G82A	0.418
G82C	0.259
G74A A77U	0.267
A83U C84U	0.87
U72A G74U	0.397
U72G A78C	0.0831
U72G A78G	0.426
G73C C75U	0.0755

— the RNAGym collection of RNA variant scans (doi:10.7554/elife.80360)
